Source: the supplement of paper PMC10126150
± gives the standard deviation of the averaged measurements.

Test system: ATP
Assay: switch fluorescence ratio, 500 uM ATP over buffer (Cy3 cluster intensity, sum of 5 cycles each) (fold (ratio)); higher = stronger signal-on switching upon ATP binding; sequences stand for … in TCGTCGGCAGCGTCAGATGTGTATAAGAGACAGTTTTTTTTTTTTTTTTTTTTTTTTT…TC
Conditions: aptamer strand: ATP DNA aptamer (quencher-CACCTGGGGGAGTATTGCGGAGGAAGG + anchor), 100 nM annealed; ATP concentration: 500 uM
In short: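 Cy3-labelled switching-strand clusters on a modified Illumina MiSeq flow-cell were annealed to 100 nM quencher-labelled ATP aptamer, imaged in selection buffer, then imaged after 15 min with 500 uM ATP at 22 °C. Five buffer/ATP cycles ran, with NaOH stripping and re-annealing between them. The fluorescence ratio is summed target-cycle over summed buffer-cycle Cy3 intensity per cluster, averaged per switch-domain sequence. Clusters outside 100-1000 RFU were excluded.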
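Also: ATP exposure 15 min at 22 °C before imaging.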

TGCATTAATT
switch fluorescence ratio: 0.992 ± 0.019

TGCATTGCTA
switch fluorescence ratio: 1.04 ± 0.015

TGCATTGGAG
switch fluorescence ratio: 1.01 ± 0.043

TGCATTGGG
switch fluorescence ratio: 0.975 ± 0.058

TGCATTGGGA
switch fluorescence ratio: 1.02 ± 0.043

TGCATTTTCG
switch fluorescence ratio: 1.03 ± 0.049

TGCATTTTTT
switch fluorescence ratio: 0.981 ± 0.034

TGCCAGTGGG
switch fluorescence ratio: 1.04 ± 0.068

TGCCATGTGT
switch fluorescence ratio: 1.032 ± 0.0036

TGCCCCCGGT
switch fluorescence ratio: 1.08 ± 0.066

TGCCCGAGCT
switch fluorescence ratio: 1.03 ± 0.1

TGCCCTTGCG
switch fluorescence ratio: 0.9827 ± 0.0046

TGCCGAAGGT
switch fluorescence ratio: 1.03 ± 0.024

TGCCGGACCG
switch fluorescence ratio: 1.02 ± 0.033

TGCCGGGTTC
switch fluorescence ratio: 0.979 ± 0.03

TGCCGTTTGC
switch fluorescence ratio: 0.965 ± 0.029

TGCCTAAGTA
switch fluorescence ratio: 1.02 ± 0.018

TGCCTCGGGG
switch fluorescence ratio: 1.042 ± 0.0049

TGCCTGGGTG
switch fluorescence ratio: 2.74 ± 1.1

TGCCTGTCTA
switch fluorescence ratio: 1.02 ± 0.018

TGCCTTTGTA
switch fluorescence ratio: 0.963 ± 0.013

TGCGAAAGGA
switch fluorescence ratio: 1.01 ± 0.016

TGCGAAATTT
switch fluorescence ratio: 0.965 ± 0.013

TGCGACAGGG
switch fluorescence ratio: 0.988 ± 0.013

TGCGACCGTT
switch fluorescence ratio: 1.01 ± 0.033

TGCGAGGCTT
switch fluorescence ratio: 1.022 ± 0.0058

TGCGAGGTTG
switch fluorescence ratio: 1.01 ± 0.041

TGCGAGTATT
switch fluorescence ratio: 1.038 ± 0.0023

TGCGAGTGCT
switch fluorescence ratio: 0.976 ± 0.037

TGCGAGTTCT
switch fluorescence ratio: 1 ± 0.014

TGCGATAAGC
switch fluorescence ratio: 1.026 ± 0.01

TGCGCCTACC
switch fluorescence ratio: 1.28 ± 0.058

TGCGCCTTAC
switch fluorescence ratio: 3.37 ± 0.38

TGCGGACAA
switch fluorescence ratio: 0.9948 ± 0.0043

TGCGGGAGTA
switch fluorescence ratio: 1.003 ± 0.0014

TGCGGGCAAG
switch fluorescence ratio: 0.992 ± 0.015

TGCGGGCGTT
switch fluorescence ratio: 0.993 ± 0.013

TGCGGGGTGC
switch fluorescence ratio: 1.02 ± 0.0028

TGCGGTCACT
switch fluorescence ratio: 0.9964 ± 0.0056

TGCGTAAAAT
switch fluorescence ratio: 1.008 ± 0.0028

TGCGTATTCT
switch fluorescence ratio: 0.967 ± 0.045

TGCGTGGGGT
switch fluorescence ratio: 1.01 ± 0.022

TGCGTGTCTT
switch fluorescence ratio: 1.01 ± 0.018

TGCGTTATTA
switch fluorescence ratio: 0.999 ± 0.017

TGCTAATAGG
switch fluorescence ratio: 1.01 ± 0.02

TGCTACACGT
switch fluorescence ratio: 1.01 ± 0.027

TGCTACGTTT
switch fluorescence ratio: 0.991 ± 0.02

TGCTAGAGCT
switch fluorescence ratio: 0.997 ± 0.011

TGCTATAGAG
switch fluorescence ratio: 1.048 ± 0.0012

TGCTATGGC
switch fluorescence ratio: 1.09 ± 0.092

TGCTATTAGG
switch fluorescence ratio: 0.979 ± 0.045

TGCTCAGCTG
switch fluorescence ratio: 1.04 ± 0.026

TGCTCCTGAT
switch fluorescence ratio: 1.02 ± 0.055

TGCTCGGTTT
switch fluorescence ratio: 0.998 ± 0.045

TGCTCTACGG
switch fluorescence ratio: 1 ± 0.018

TGCTGAAAGA
switch fluorescence ratio: 1.04 ± 0.028

TGCTGAAATG
switch fluorescence ratio: 1.03 ± 0.07

TGCTGCTGAG
switch fluorescence ratio: 0.971 ± 0.016

TGCTGGCCAC
switch fluorescence ratio: 1.01 ± 0.013

TGCTGGGGTC
switch fluorescence ratio: 0.977 ± 0.016

TGCTGGGTGG
switch fluorescence ratio: 1.01 ± 0.02

TGCTGTAACG
switch fluorescence ratio: 1.02 ± 0.017

TGCTGTAAGG
switch fluorescence ratio: 1 ± 0.036

TGCTGTAATA
switch fluorescence ratio: 1.035 ± 0.0031

TGCTGTCTGT
switch fluorescence ratio: 0.9903 ± 0.0058

TGCTGTTAAT
switch fluorescence ratio: 0.9829 ± 0.0089

TGCTGTTGGA
switch fluorescence ratio: 0.953 ± 0.011

TGCTTAAAGT
switch fluorescence ratio: 0.9807 ± 0.0054

TGCTTAGACT
switch fluorescence ratio: 1.18 ± 0.27

TGCTTATCTA
switch fluorescence ratio: 1.016 ± 0.0077

TGCTTATGGG
switch fluorescence ratio: 0.965 ± 0.016

TGCTTATTGG
switch fluorescence ratio: 0.9725 ± 0.0081

TGCTTATTTG
switch fluorescence ratio: 1 ± 0.023

TGCTTCTCGA
switch fluorescence ratio: 0.991 ± 0.031

TGCTTGCTGT
switch fluorescence ratio: 0.991 ± 0.01

TGCTTGGTTT
switch fluorescence ratio: 1.02 ± 0.018

TGCTTTACGC
switch fluorescence ratio: 1.03 ± 0.03

TGCTTTGCCG
switch fluorescence ratio: 1.09 ± 0.072

TGCTTTTGAT
switch fluorescence ratio: 1 ± 0.048

TGCTTTTTGT
switch fluorescence ratio: 1.02 ± 0.046

TGGAAAAATG
switch fluorescence ratio: 0.991 ± 0.031

TGGAAAAGTT
switch fluorescence ratio: 0.993 ± 0.017

TGGAAAGCTG
switch fluorescence ratio: 1.04 ± 0.025

TGGAAAGGAG
switch fluorescence ratio: 1.02 ± 0.013

TGGAAAGGGT
switch fluorescence ratio: 1.06 ± 0.035

TGGAAATGCC
switch fluorescence ratio: 1.07 ± 0.065

TGGAAGCGGG
switch fluorescence ratio: 1.04 ± 0.07

TGGAAGGGTG
switch fluorescence ratio: 1.05 ± 0.017

TGGAATATGG
switch fluorescence ratio: 1.04 ± 0.021

TGGAATGGGG
switch fluorescence ratio: 1 ± 0.037

TGGAATTTAG
switch fluorescence ratio: 1.013 ± 0.00072

TGGACCCGAT
switch fluorescence ratio: 0.978 ± 0.011

TGGACCTTTT
switch fluorescence ratio: 1.64 ± 0.82

TGGAGAAAGG
switch fluorescence ratio: 1.13 ± 0.29

TGGAGAAGAT
switch fluorescence ratio: 0.978 ± 0.03

TGGAGAAGGT
switch fluorescence ratio: 1.02 ± 0.027

TGGAGAGGTC
switch fluorescence ratio: 0.999 ± 0.022

TGGAGAGTAG
switch fluorescence ratio: 1.01 ± 0.032

TGGAGCAGGG
switch fluorescence ratio: 1.05 ± 0.036

TGGAGCCAGT
switch fluorescence ratio: 1.01 ± 0.041

TGGAGGGAAG
switch fluorescence ratio: 1.03 ± 0.059

TGGAGGGCTC
switch fluorescence ratio: 1.01 ± 0.025

TGGAGGGGGG
switch fluorescence ratio: 0.997 ± 0.086

TGGAGTAGG
switch fluorescence ratio: 1.01 ± 0.025

TGGAGTAGGG
switch fluorescence ratio: 0.9874 ± 0.0062

TGGAGTGGGG
switch fluorescence ratio: 1 ± 0.025

TGGAGTTTGG
switch fluorescence ratio: 1.15 ± 0.19

TGGATACTTA
switch fluorescence ratio: 1.02 ± 0.013

TGGATAGCGC
switch fluorescence ratio: 1.01 ± 0.011

TGGATCACGG
switch fluorescence ratio: 1.02 ± 0.0054

TGGATCGTAG
switch fluorescence ratio: 0.978 ± 0.011

TGGATCTCAG
switch fluorescence ratio: 0.982 ± 0.012

TGGATGAGTG
switch fluorescence ratio: 0.9822 ± 0.0077

TGGATGGGGA
switch fluorescence ratio: 0.98 ± 0.028

TGGATGTCAG
switch fluorescence ratio: 0.992 ± 0.054

TGGATGTGTG
switch fluorescence ratio: 0.962 ± 0.038

TGGATTATTA
switch fluorescence ratio: 1.02 ± 0.014

TGGATTGGGG
switch fluorescence ratio: 0.978 ± 0.059

TGGATTGTCC
switch fluorescence ratio: 1.03 ± 0.012

TGGATTTAGT
switch fluorescence ratio: 0.9825 ± 0.0084

TGGCACAGGG
switch fluorescence ratio: 1.06 ± 0.016

TGGCAGACTC
switch fluorescence ratio: 1.28 ± 0.013

TGGCAGTCTA
switch fluorescence ratio: 0.979 ± 0.018

TGGCAGTGGT
switch fluorescence ratio: 0.993 ± 0.03

TGGCAGTGTG
switch fluorescence ratio: 1.05 ± 0.019

TGGCATAGGT
switch fluorescence ratio: 1.02 ± 0.03

TGGCATAGTT
switch fluorescence ratio: 0.995 ± 0.042

TGGCCAGGGT
switch fluorescence ratio: 1.06 ± 0.031

TGGCCCGGGA
switch fluorescence ratio: 0.9878 ± 0.0035

TGGCCGGGCG
switch fluorescence ratio: 1.011 ± 0.0026

TGGCCTAGG
switch fluorescence ratio: 1 ± 0.029

TGGCGATTGT
switch fluorescence ratio: 0.986 ± 0.014

TGGCGCCCTT
switch fluorescence ratio: 1.01 ± 0.012

TGGCGGACAG
switch fluorescence ratio: 0.99 ± 0.026

TGGCGGTGCT
switch fluorescence ratio: 0.997 ± 0.028

TGGCGTGTTA
switch fluorescence ratio: 1.02 ± 0.044

TGGCTAAAAT
switch fluorescence ratio: 0.998 ± 0.023

TGGCTAAGGT
switch fluorescence ratio: 1.023 ± 0.0017

TGGCTCATAC
switch fluorescence ratio: 1.45 ± 0.041

TGGCTCGGGG
switch fluorescence ratio: 1.03 ± 0.051

TGGCTGGGTA
switch fluorescence ratio: 0.983 ± 0.043

TGGCTTAAAC
switch fluorescence ratio: 1.18 ± 0.28

TGGCTTACAG
switch fluorescence ratio: 1.003 ± 0.0022

TGGCTTGGCG
switch fluorescence ratio: 1.01 ± 0.072

TGGGAAAAAG
switch fluorescence ratio: 0.972 ± 0.039

TGGGAAAGCA
switch fluorescence ratio: 1 ± 0.012

TGGGAAATCT
switch fluorescence ratio: 1.17 ± 0.25

TGGGAACCGT
switch fluorescence ratio: 1.18 ± 0.32

TGGGAAGACA
switch fluorescence ratio: 1.06 ± 0.092

TGGGAAGATT
switch fluorescence ratio: 1.028 ± 0.0041

TGGGAAGGCA
switch fluorescence ratio: 1 ± 0.025

TGGGAAGTCC
switch fluorescence ratio: 1.001 ± 0.0074

TGGGAATATG
switch fluorescence ratio: 1 ± 0.036

TGGGAATGAC
switch fluorescence ratio: 2.01 ± 1.4

TGGGACAGTG
switch fluorescence ratio: 0.968 ± 0.058

TGGGACATGG
switch fluorescence ratio: 0.995 ± 0.031

TGGGACCAGG
switch fluorescence ratio: 1.05 ± 0.03

TGGGACGTAC
switch fluorescence ratio: 1.79 ± 0.15

TGGGACTTGG
switch fluorescence ratio: 1.01 ± 0.018

TGGGACTTTG
switch fluorescence ratio: 1.0328 ± 0.001

TGGGAGAGGT
switch fluorescence ratio: 0.996 ± 0.02

TGGGAGAGTC
switch fluorescence ratio: 0.989 ± 0.047

TGGGAGGCAA
switch fluorescence ratio: 1.16 ± 0.021

TGGGAGGGGA
switch fluorescence ratio: 1.03 ± 0.035

TGGGAGGTTC
switch fluorescence ratio: 1.03 ± 0.02

TGGGAGTTGG
switch fluorescence ratio: 1.03 ± 0.012

TGGGATAAAG
switch fluorescence ratio: 0.9923 ± 0.0029

TGGGATATGG
switch fluorescence ratio: 0.996 ± 0.029

TGGGATCGCT
switch fluorescence ratio: 1.038 ± 0.0056

TGGGATCTGG
switch fluorescence ratio: 0.997 ± 0.037

TGGGATGCAG
switch fluorescence ratio: 1.01 ± 0.065

TGGGATTATT
switch fluorescence ratio: 1.02 ± 0.019

TGGGATTGGG
switch fluorescence ratio: 0.974 ± 0.013

TGGGATTGTT
switch fluorescence ratio: 1 ± 0.035

TGGGCAACCG
switch fluorescence ratio: 1.02 ± 0.065

TGGGCAGGCT
switch fluorescence ratio: 0.998 ± 0.044

TGGGCATATG
switch fluorescence ratio: 0.993 ± 0.014

TGGGCATTAT
switch fluorescence ratio: 1.04 ± 0.07

TGGGCATTTT
switch fluorescence ratio: 0.987 ± 0.025

TGGGCCAGTG
switch fluorescence ratio: 1.05 ± 0.014

TGGGCCGCCC
switch fluorescence ratio: 1.07 ± 0.12

TGGGCCGGGT
switch fluorescence ratio: 1.03 ± 0.055

TGGGCGAAAA
switch fluorescence ratio: 0.974 ± 0.045

TGGGCGACCG
switch fluorescence ratio: 0.99 ± 0.021

TGGGCGGGGT
switch fluorescence ratio: 1.02 ± 0.031

TGGGCGGGTT
switch fluorescence ratio: 0.989 ± 0.032

TGGGCGGTGT
switch fluorescence ratio: 0.992 ± 0.037

TGGGCGTAAG
switch fluorescence ratio: 1.02 ± 0.027

TGGGCGTCGG
switch fluorescence ratio: 0.999 ± 0.032

TGGGCTACTC
switch fluorescence ratio: 1.1 ± 0.044

TGGGCTAGAT
switch fluorescence ratio: 0.998 ± 0.053

TGGGCTGGTA
switch fluorescence ratio: 0.972 ± 0.025

TGGGCTTAGT
switch fluorescence ratio: 0.992 ± 0.012

TGGGGAAAGG
switch fluorescence ratio: 0.978 ± 0.034

TGGGGAAAGT
switch fluorescence ratio: 1.03 ± 0.036

TGGGGAACCT
switch fluorescence ratio: 0.96 ± 0.032

TGGGGAATAG
switch fluorescence ratio: 1.04 ± 0.057

TGGGGACAAA
switch fluorescence ratio: 0.986 ± 0.019

TGGGGACGGA
switch fluorescence ratio: 1.02 ± 0.054

TGGGGAGAGG
switch fluorescence ratio: 1.02 ± 0.037
